# Measured values published in article PMC12289001, “Functional characterization of DPP4 and FcRn as receptor and coreceptor for classical human astroviruses in Caco-2 cells” (PLOS Pathogens, 2025).
# Molecular target: T1, recombinant FcRn (FCGRT ectodomain with β-2-Microglobulin), expressed in CHO-S cells (human, UniProt P55899 24-297; P61769 21-119)
# T1 construct: signal peptide in the construct; ectodomain of human FCGRT (FcRn heavy chain), Met1-Ser297, followed by a C-terminal thrombin cleavage site before the tags; β-2-Microglobulin, Met1-Met119; also called neonatal Fc receptor; source: CHO-S cells, electroporated with both plasmids, purified from the media (StrepTrap XT)
# Assay: BLI; HIS1K biosensors loaded with HAstV-8 spike (6 μg/ml); FcRn in solution, 1,000 to 62.5 nM (mutant spike: 2,000 nM only); 0.1M sodium phosphate, 150 mM NaCl, 0.05% Tween-20, pH 7.0; 25 °C; 1:1 binding model; triplicate
# Settings: both partners purified
# T1 sequence (P55899 24-297, chain 1 of 2): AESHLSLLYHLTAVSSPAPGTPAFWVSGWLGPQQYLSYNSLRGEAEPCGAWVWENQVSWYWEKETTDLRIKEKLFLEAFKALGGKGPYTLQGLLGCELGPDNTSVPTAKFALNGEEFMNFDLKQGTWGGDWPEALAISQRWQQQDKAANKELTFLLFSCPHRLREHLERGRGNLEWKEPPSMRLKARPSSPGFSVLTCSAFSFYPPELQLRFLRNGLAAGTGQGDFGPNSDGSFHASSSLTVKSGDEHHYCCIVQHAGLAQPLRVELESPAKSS
# T1 sequence (P61769 21-119, chain 2 of 2): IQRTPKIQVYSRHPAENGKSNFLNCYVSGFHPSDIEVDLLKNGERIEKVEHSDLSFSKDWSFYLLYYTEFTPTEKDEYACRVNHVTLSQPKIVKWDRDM
binder,measurement,value
"recombinant WT HAstV-8 capsid spike (domain or fragment, Wild-type spike. Limits are not printed: about 429-647 is taken by convention from related HAstV spike constructs and is close to the VP25 feature 424-648. The C-terminal thrombin site and His10 tag …) GEQFRVLLTVGPPMAPNTANSQNWVNKTIVPPENQYTVKIGIDLEHYTTMQGFTPVESVSWYTADFQPSDEPSPIPGLYARVNNTKKADVYGVQQFKSSHTNNRHQITSVFLVRVTTSFQVINYTSYFIRGAESGSNVSNLKIRDQTYHTPLQFTQGKWYLLTSTVMHDGPTSSGWVWMNQELTNNIAYRVDPGMMYLITPPPAASQLYFELHTVLPQA",Kd,~0.28 µM
